Reference: PMC7324161, “Synergy between SIRT1 and SIRT6 helps recognize DNA breaks and potentiates the DNA damage response and repair in humans and mice” (eLife, 2020)
Where no end group is shown, it is not given here. [ ]: non-standard residue; d: D form. The star is where a group is joined. Biotin = O=C1N[C@H]2[C@H](CS[C@H]2CCCCC(=O)*)N1; pS = N[C@@H](COP(=O)(O)O)C(=O)O

Columns and labels:
GST-SIRT6 K33R (human) = experiment: fluorescence polarization; details: Pull-down: 10 mM Tris-Cl pH 7.5, 100 mM NaCl, 0.01% NP40, 10% glycerol, 4 C overnight, 10 pmol DNA and 0.5 ug protein in 300 ul; FP buffer not in material
GST-SIRT6 WT (human) = experiment: fluorescence polarization; details: 20 nM FAM-DNA; Pull-down: 10 mM Tris-Cl pH 7.5, 100 mM NaCl, 0.01% NP40, 10% glycerol, 4 C overnight, 10 pmol DNA and 0.5 ug protein in 300 ul; FP buffer not in material
GST-SIRT6 K33R = target: T1, GST-SIRT6 K33R (human, UniProt Q8N6T7 1-355, K33R); experiment: pull-down; 1 μg biotinylated peptide with 1 μg GST-SIRT6 in 50 mM Tris-HCl, 200 mM NaCl, 0.05% NP40 overnight at 4°C; Streptavidin Sepharose beads 1 hr at 4°C; western blot; details: both partners purified
T1 construct: SIRT6, human, lysine 33 to arginine, as GST fusion
T1 sequence (Q8N6T7 whole entry K33R, the tested form may be a part): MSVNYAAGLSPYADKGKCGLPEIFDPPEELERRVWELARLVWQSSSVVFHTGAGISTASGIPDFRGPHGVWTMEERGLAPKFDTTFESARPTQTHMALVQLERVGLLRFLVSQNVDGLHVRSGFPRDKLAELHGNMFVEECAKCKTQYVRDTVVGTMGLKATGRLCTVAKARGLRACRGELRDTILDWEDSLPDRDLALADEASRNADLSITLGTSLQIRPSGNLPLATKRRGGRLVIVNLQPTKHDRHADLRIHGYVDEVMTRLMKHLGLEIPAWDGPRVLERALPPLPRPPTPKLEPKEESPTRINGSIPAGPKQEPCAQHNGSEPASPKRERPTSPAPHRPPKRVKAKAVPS

Row | binding result (GST-SIRT6 K33R) | Molecule | Kd (GST-SIRT6 K33R (human)) [nM] | Kd (GST-SIRT6 WT (human)) [nM]
1 | – | FAM-labeled DNA duplex | 105 | 166
2 | binds | Biotin-GKKATQA[pS]QEY (C terminus of H2AX, printed as BGKKATQApSQEY; also called biotin-γH2AXp; source: synthetic peptide (GL Biochem, Shanghai)) [biotin-labeled C-terminal γH2AX peptide] | – | –
